B1: TPR t1 (parent)
chain: GACCAAUCUGCCCUCAGAGCUCGAGAACAUCUUCGGAUGCAGAGGAGGCAGGCUUCGGUGGCGCGAUAGCGCCAACGUCCUCAACCUCCAAUGCAUCCCACCACAUGAUGAUGCCUGAAGAGCCUUGGUUUUUUG

Variants of: B1
Experiment: polymerase ribozyme fitness, log enrichment relative to wild type (log ratio); higher = more active; in vitro selection for triplet polymerase activity
Method in brief: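 Mutant libraries were PCR-built and transcribed for each subunit of a heterodimeric triplet polymerase ribozyme and selected for one round in triplicate at −7 °C, frozen, before gel excision of extended constructs and streptavidin-bead capture. Input and output libraries were Illumina-sequenced, keeping genotypes with ≥10 input reads and ≥1 read per output. Fitness is a logarithmic ratio of genotype to wild-type enrichment, in base 2, using inverse-variance-weighted replicate averages.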

First: C28U G52A
Second: A37C A91C
The “polymerase ribozyme fitness (log ratio)” value of the first is lower: -2.18 for the first, -0.946 for the second.

Compared with G48A G60U A90C C114A, C80A C97G G117C is lower in “polymerase ribozyme fitness (log ratio)” value: -2.49 for the first, -7.22 for the second.

First: C72G U130A
Second: A103C G113C
The “polymerase ribozyme fitness (log ratio)” value of the first is higher: -0.458 for the first, -5.94 for the second.

Compared with C8G C11U G52U U81G U92C A119G U133A, U9C C11A A18C C53G C80G C99A G110U is lower in “polymerase ribozyme fitness (log ratio)” value: -5.64 for the first, -6.83 for the second.

C53A U130C and C15U G60C G117A are within 0.2 log units of each other in “polymerase ribozyme fitness (log ratio)” value: 0.592 for the first, 0.583 for the second.

First: C11U C22G C40U U106G
Second: U7A U9G C70U C73U C79G A84G U96C
The “polymerase ribozyme fitness (log ratio)” value of the first is higher: -4.43 for the first, -4.92 for the second.

Compared with G48C C56A, G17U G61A C88U C104A U133A is lower in “polymerase ribozyme fitness (log ratio)” value: -1.68 for the first, -4.19 for the second.

Compared with A24G C70A G110A A111U, C104A G113C is higher in “polymerase ribozyme fitness (log ratio)” value: -5.11 for the first, -4.17 for the second.

Going from C11G U129C to U14G A121C, the “polymerase ribozyme fitness (log ratio)” value rises from -0.495 to 0.71.

Compared with U32G A43U G69U A100C U109C G117U U130A, G71U G107A is higher in “polymerase ribozyme fitness (log ratio)” value: -7.2 for the first, -4.04 for the second.

Compared with C12G G23A G71C C123G U129A, A5U G63U is higher in “polymerase ribozyme fitness (log ratio)” value: -7.78 for the first, -1.8 for the second.

C28G A46G G120A U130A and C20A G69U C104A are within 0.2 log units of each other in “polymerase ribozyme fitness (log ratio)” value: -2.51 for the first, -2.59 for the second.

C94A C101G C123G and A105U C115U are within 0.2 log units of each other in “polymerase ribozyme fitness (log ratio)” value: -1.92 for the first, -1.94 for the second.

Compared with A41G C56A G63U C70U, A95G G135U is higher in “polymerase ribozyme fitness (log ratio)” value: -2.43 for the first, -0.746 for the second.

First: C22G C62A
Second: G10A G19A A74U
The “polymerase ribozyme fitness (log ratio)” value of the first is lower: -3.99 for the first, -3.32 for the second.

Going from C12U A50U C115U to A41U G60U C85A C94U, the “polymerase ribozyme fitness (log ratio)” value rises from -3.47 to -1.72.

First: C53A U78A
Second: U9G A16C A68U U109A
The “polymerase ribozyme fitness (log ratio)” value of the first is higher: 0.532 for the first, -6.08 for the second.

Compared with U54A C94U U109G, C34A C56A is higher in “polymerase ribozyme fitness (log ratio)” value: -5 for the first, -3.11 for the second.

Going from C11G C53A G61C to A6G U7C A74C C80G U112G, the “polymerase ribozyme fitness (log ratio)” value falls from -4.59 to -6.27.

Going from G69A U81C to G44U C53G G60A A121C, the “polymerase ribozyme fitness (log ratio)” value rises from -2.71 to 0.687.

Compared with G35C, G61A A90G is higher in “polymerase ribozyme fitness (log ratio)” value: -4.55 for the first, -0.68 for the second.

Compared with G71U C86U C102U, C4U G10U G52U C88G C123U is higher in “polymerase ribozyme fitness (log ratio)” value: -2.63 for the first, -0.494 for the second.

Going from U9G G61A C76G to A37U G122A U130C U131A G135U, the “polymerase ribozyme fitness (log ratio)” value rises from -4.18 to -1.18.

Compared with G71C G113C, U55G G61C is higher in “polymerase ribozyme fitness (log ratio)” value: -2.72 for the first, -1.85 for the second.

First: G44U U109A
Second: C3G U129C
The “polymerase ribozyme fitness (log ratio)” value of the first is lower: -5.43 for the first, -1.37 for the second.

First: C13A G63U C70U
Second: C12A C72G A91C U96A
The “polymerase ribozyme fitness (log ratio)” value of the first is higher: -0.406 for the first, -2.9 for the second.

Going from C73U G113U to A27U A84C G120U U125C, the “polymerase ribozyme fitness (log ratio)” value rises from -3.18 to -1.52.

Compared with A6G U54A G93A, C76U A121C is higher in “polymerase ribozyme fitness (log ratio)” value: -0.596 for the first, 2.01 for the second.

A50C C70U U116G G117A and C4U G10U C70G are within 0.2 log units of each other in “polymerase ribozyme fitness (log ratio)” value: -4.23 for the first, -4.35 for the second.

First: C72U C98U U131C
Second: C85U U92C G127U G128A
The “polymerase ribozyme fitness (log ratio)” value of the first is higher: -1.05 for the first, -6.04 for the second.

Compared with G69C U132A, C64U U92G is lower in “polymerase ribozyme fitness (log ratio)” value: -2.03 for the first, -3.31 for the second.

Going from C64U U92C to C22G A90C U92C G120C, the “polymerase ribozyme fitness (log ratio)” value falls from -1.23 to -3.7.

Compared with U33A G44A C72A U112G, G48A U87C C101A A105U is higher in “polymerase ribozyme fitness (log ratio)” value: -6.21 for the first, -3.9 for the second.

Going from C104G A119G to G42A G61U A83U, the “polymerase ribozyme fitness (log ratio)” value rises from -6.88 to -2.11.

Going from C4A C12A C13A A18U G44A G51A U59A U87A G110C G120A U126G to G71A C124G, the “polymerase ribozyme fitness (log ratio)” value rises from -7.29 to 0.316.

First: C11U C56U A95G
Second: U54A C82U
The “polymerase ribozyme fitness (log ratio)” value of the first is lower: -0.936 for the first, -0.0762 for the second.

First: C8U C40U A43U G77C
Second: C12A A26U
The “polymerase ribozyme fitness (log ratio)” value of the first is higher: -1.32 for the first, -3.83 for the second.

Going from C22G A50C G60U C115A to G44A C53U C82U G117A C124A, the “polymerase ribozyme fitness (log ratio)” value rises from -2.18 to -1.14.

Compared with C13U C34A C64U A84C G113U, C53G U87G is higher in “polymerase ribozyme fitness (log ratio)” value: -4.89 for the first, -0.632 for the second.

Going from A26G G44U G61A C99U G120U C124A to G10C G52U G60A C89A, the “polymerase ribozyme fitness (log ratio)” value falls from -3.22 to -4.24.

First: U32A C88U
Second: A5C C12A U96C G128C
The “polymerase ribozyme fitness (log ratio)” value of the first is lower: -3.8 for the first, -2.92 for the second.

With A24G A119U C123G U125A the “polymerase ribozyme fitness (log ratio)” value was 0.361.
